{"source": "IntAct's records for PubMed 16777958", "parents": {"B1": {"name": "Activated CDC42 kinase 1 (Mus musculus), O54967 (parent)", "chain": "MQPEEGTGWLLELLSEVQLQQYFLRLRDDLNITRLSHFEYVKNEDLEKIGMGRPGQRRLWEAVKRRKAMCKRKSWMSKVFSGKRLEAEFPSQHSQSTFRKPSPTPGSLPGEGTLQSLTCLIGEKDLRLLEKLGDGSFGVVRRGEWDAPAGKTVSVAVKCLKPDVLSQPEAMDDFIREVNAMHSLDHRNLIRLYGVVLTLPMKMVTELAPLGSLLDRLRKHQGHFLLGTLSRYAVQVAEGMAYLESKRFIHRDLAARNLLLATRDLVKIGDFGLMRALPQNDDHYVMQEHRKVPFAWCAPESLKTRTFSHASDTWMFGVTLWEMFTYGQEPWIGLNGSQILHKIDKEGERLPRPEDCPQDIYNVMVQCWAHKPEDRPTFVALRDFLLEAQPTDMRALQDFEEPDKLHIQMNDVITVIEGRAENYWWRGQNTRTLCVGPFPRNVVTSVAGLSAQDISQPLQNSFIHTGHGDSDPRHCWGFPDRIDELYLGNPMDPPDLLSVELSTSRPTQHLGRVKREPPPRPPQPAIFTQKTTYDPVSEDPDPLSSDFKRLGLRKPALPRGLWLAKPSARVPGTKADRSSGGEVTLIDFGEEPVVPTPRPCAPSLAQLAMDACSLLDKTPPQSPTRALPRPLHPTPVVDWDARPLPPPPAYDDVAQDEDDFEVCSINSTLVGAGLPAGPSQGETNYAFVPEQAQMPPALEDNLFLPPQGGGKPPSSVQTAEIFQALQQECMRQLQVPTGQLTPSPTPGGDDKPQVPPRVPIPPRPTRPRVELSPAPSGEEETSRWPGPASPPRVPPREPLSPQGSRTPSPLVPPGSSPLPHRLSSSPGKTMPTTQSFASDPKYATPQVIQAPGPRAGPCILPIVRDGRKVSSTHYYLLPERPPYLERYQRFLREAQSPEEPAALPVPPLLPPPSTPAPAAPTATVRPMPQAAPDPKANFSTNNSNPGARPPSLRAAARLPQRGCPGDGQEAARPADKVQMLQAMVHGVTTEECQAALQSHSWSVQRAAQYLKVEQLFGLGLRPRVECHKVLEMFDWNLEQAGCHLLGSCGPAHHKR"}}}
{"variants_of": "B1", "conditions": "with NCK1, P16333-1"}
{"variant": "K158A", "effect of a mutation on the interaction": "disrupting interaction strength"}
